Measured values reported in patent US20190085054A1 (Amgen, published 2019).

T1: human MMP2 (pro-MMP2 activated with APMA) (human, UniProt P08253 30-660)
T1 sequence (looked up): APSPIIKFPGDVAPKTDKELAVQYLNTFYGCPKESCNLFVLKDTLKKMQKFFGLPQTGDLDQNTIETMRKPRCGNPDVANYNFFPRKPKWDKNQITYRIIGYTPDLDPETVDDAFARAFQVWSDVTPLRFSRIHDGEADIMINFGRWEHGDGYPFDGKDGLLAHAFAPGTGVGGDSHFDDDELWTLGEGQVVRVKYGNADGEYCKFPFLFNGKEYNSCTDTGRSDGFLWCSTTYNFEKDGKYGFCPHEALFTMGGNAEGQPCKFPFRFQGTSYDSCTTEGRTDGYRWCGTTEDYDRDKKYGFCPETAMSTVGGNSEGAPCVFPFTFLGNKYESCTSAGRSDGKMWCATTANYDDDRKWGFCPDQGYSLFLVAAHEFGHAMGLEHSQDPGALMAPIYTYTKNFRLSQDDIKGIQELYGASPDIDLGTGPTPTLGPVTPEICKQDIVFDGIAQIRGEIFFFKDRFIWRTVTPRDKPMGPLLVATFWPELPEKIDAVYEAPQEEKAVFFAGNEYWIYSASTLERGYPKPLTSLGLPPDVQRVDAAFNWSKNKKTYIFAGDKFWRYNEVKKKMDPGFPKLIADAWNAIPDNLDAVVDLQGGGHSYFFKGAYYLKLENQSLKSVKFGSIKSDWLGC


Experiments:
Experiment in all cases: cell-based or functional assay
[1] = molecular target: T1, human MMP2 (pro-MMP2 activated with …)
[2] = molecular target: T2, catalytic domain of human MMP9 (human, UniProt P14780 107-444, limits assumed)
active MMP13 = active MMP13 (UniProt P45452 20-471, limits assumed)
[3] = molecular target: T1, human MMP2 (pro-MMP2 activated with …); remark: listed apart in the source
[4] = molecular target: T2, catalytic domain of human MMP9; remark: listed apart in the source

T2 sequence (P14780 107-444 limits assumed): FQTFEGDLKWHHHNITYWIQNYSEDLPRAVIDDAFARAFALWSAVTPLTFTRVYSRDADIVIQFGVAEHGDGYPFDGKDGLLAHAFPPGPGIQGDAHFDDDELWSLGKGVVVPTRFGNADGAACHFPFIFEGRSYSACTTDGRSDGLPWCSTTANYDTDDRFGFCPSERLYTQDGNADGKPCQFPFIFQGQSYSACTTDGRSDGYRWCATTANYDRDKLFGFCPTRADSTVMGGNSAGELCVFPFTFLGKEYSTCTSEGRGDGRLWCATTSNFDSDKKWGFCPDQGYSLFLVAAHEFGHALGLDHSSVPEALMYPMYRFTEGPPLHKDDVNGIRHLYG

| MMP2 IC50 [1] | MMP9 IC50 [2] | MMP13 IC50 (active MMP13) | MMP2 Inhibition Shift [3] | MMP9 Inhibition Shift [4] | Binder |
| --- | --- | --- | --- | --- | --- |
| – | – | – | 7 fold | 25 fold | TIMP-3 mutein K45N, V47T, F57N, K75N, P77T, K94N, E96T, R138T, G173T (other) CTCSPSHPQDAFCNSDIVIRANVTGKKLVKEGPNGTLVYTIKQMKMYRGFTNMTHVQYIHTEASESLCGLNLTVNKYQYLLTGRVYDGKMYTGLCNFVERWDQLTLSQRKGLNYTYHLGCNCKIKSCYYLPCFVTSKNECLWTDMLSNFTYPGYQSKHYACIRQKGGYCSWYRGWAPPDKSIINATDP |
| – | – | – | 5 fold | 15 fold | TIMP-3 mutein K45N, V47T, F57N, K94N, E96T, R138T, G173T (other) CTCSPSHPQDAFCNSDIVIRANVTGKKLVKEGPNGTLVYTIKQMKMYRGFTKMPHVQYIHTEASESLCGLNLTVNKYQYLLTGRVYDGKMYTGLCNFVERWDQLTLSQRKGLNYTYHLGCNCKIKSCYYLPCFVTSKNECLWTDMLSNFTYPGYQSKHYACIRQKGGYCSWYRGWAPPDKSIINATDP |
| – | – | – | 6 fold | 24 fold | TIMP-3 mutein K45S, F57N, K94N, E96T, D110N, K112T, R138T, G173T (other) CTCSPSHPQDAFCNSDIVIRASVVGKKLVKEGPNGTLVYTIKQMKMYRGFTKMPHVQYIHTEASESLCGLNLTVNKYQYLLTGRVYNGTMYTGLCNFVERWDQLTLSQRKGLNYTYHLGCNCKIKSCYYLPCFVTSKNECLWTDMLSNFTYPGYQSKHYACIRQKGGYCSWYRGWAPPDKSIINATDP |
| – | – | – | 8 fold | 16 fold | TIMP-3 mutein K45S, F57N, T63N, K65T, K94N, E96T, R138T, G173T (other) CTCSPSHPQDAFCNSDIVIRASVVGKKLVKEGPNGTLVYNITQMKMYRGFTKMPHVQYIHTEASESLCGLNLTVNKYQYLLTGRVYDGKMYTGLCNFVERWDQLTLSQRKGLNYTYHLGCNCKIKSCYYLPCFVTSKNECLWTDMLSNFTYPGYQSKHYACIRQKGGYCSWYRGWAPPDKSIINATDP |
| – | – | – | 6 fold | 8 fold | TIMP-3 mutein K45N, V47T, F57N, V97N, K99T, R138T, G173T (other) CTCSPSHPQDAFCNSDIVIRANVTGKKLVKEGPNGTLVYTIKQMKMYRGFTKMPHVQYIHTEASESLCGLKLENNTYQYLLTGRVYDGKMYTGLCNFVERWDQLTLSQRKGLNYTYHLGCNCKIKSCYYLPCFVTSKNECLWTDMLSNFTYPGYQSKHYACIRQKGGYCSWYRGWAPPDKSIINATDP |
| – | – | – | 1 fold | 5 fold | TIMP-3 mutein K45E, K49E, F57N, K94N, E96T, D110N, K112T, G173T, R186N, K188T (other) CTCSPSHPQDAFCNSDIVIRAEVVGEKLVKEGPNGTLVYTIKQMKMYRGFTKMPHVQYIHTEASESLCGLNLTVNKYQYLLTGRVYNGTMYTGLCNFVERWDQLTLSQRKGLNYRYHLGCNCKIKSCYYLPCFVTSKNECLWTDMLSNFTYPGYQSKHYACINQTGGYCSWYRGWAPPDKSIINATDP |
| – | – | – | 2 fold | 1 fold | TIMP-3 mutein K50N, V52T, K94N, E96T, R138T, G173T (other) CTCSPSHPQDAFCNSDIVIRAKVVGKNLTKEGPFGTLVYTIKQMKMYRGFTKMPHVQYIHTEASESLCGLNLTVNKYQYLLTGRVYDGKMYTGLCNFVERWDQLTLSQRKGLNYTYHLGCNCKIKSCYYLPCFVTSKNECLWTDMLSNFTYPGYQSKHYACIRQKGGYCSWYRGWAPPDKSIINATDP |

Continued, binder first:

| Binder | MMP2 IC50 [1] | MMP9 IC50 [2] | MMP13 IC50 (active MMP13) | MMP2 Inhibition Shift [3] | MMP9 Inhibition Shift [4] |
| --- | --- | --- | --- | --- | --- |
| wild-type TIMP-3 (native human tissue inhibitor of metalloproteinase 3) (other) CTCSPSHPQDAFCNSDIVIRAKVVGKKLVKEGPFGTLVYTIKQMKMYRGFTKMPHVQYIHTEASESLCGLKLEVNKYQYLLTGRVYDGKMYTGLCNFVERWDQLTLSQRKGLNYRYHLGCNCKIKSCYYLPCFVTSKNECLWTDMLSNFGYPGYQSKHYACIRQKGGYCSWYRGWAPPDKSIINATDP | 0.6 nM | 1 nM | 0.9 nM | – | – |
| TIMP-3 mutein K45S, F57N, T63N, K65T, K94N, E96T, G173T (other) CTCSPSHPQDAFCNSDIVIRASVVGKKLVKEGPNGTLVYNITQMKMYRGFTKMPHVQYIHTEASESLCGLNLTVNKYQYLLTGRVYDGKMYTGLCNFVERWDQLTLSQRKGLNYRYHLGCNCKIKSCYYLPCFVTSKNECLWTDMLSNFTYPGYQSKHYACIRQKGGYCSWYRGWAPPDKSIINATDP | – | – | – | 2 fold | 16 fold |
| TIMP-3 mutein K45S, F57N, H78N, Q80T, K94N, E96T, R138T, G173T (other) CTCSPSHPQDAFCNSDIVIRASVVGKKLVKEGPNGTLVYTIKQMKMYRGFTKMPNVTYIHTEASESLCGLNLTVNKYQYLLTGRVYDGKMYTGLCNFVERWDQLTLSQRKGLNYTYHLGCNCKIKSCYYLPCFVTSKNECLWTDMLSNFTYPGYQSKHYACIRQKGGYCSWYRGWAPPDKSIINATDP | – | – | – | 5 fold | 18 fold |
| TIMP-3 mutein K45E, F57N, Q126N, R138T, G173T (other) CTCSPSHPQDAFCNSDIVIRAEVVGKKLVKEGPNGTLVYTIKQMKMYRGFTKMPHVQYIHTEASESLCGLKLEVNKYQYLLTGRVYDGKMYTGLCNFVERWDNLTLSQRKGLNYTYHLGCNCKIKSCYYLPCFVTSKNECLWTDMLSNFTYPGYQSKHYACIRQKGGYCSWYRGWAPPDKSIINATDP | – | – | – | 4 fold | 8 fold |
| TIMP-3 mutein K45N, V47T, F57N, K94N, E96T, D110N, K112T, R186N, K188T (other) CTCSPSHPQDAFCNSDIVIRANVTGKKLVKEGPNGTLVYTIKQMKMYRGFTKMPHVQYIHTEASESLCGLNLTVNKYQYLLTGRVYNGTMYTGLCNFVERWDQLTLSQRKGLNYRYHLGCNCKIKSCYYLPCFVTSKNECLWTDMLSNFGYPGYQSKHYACINQTGGYCSWYRGWAPPDKSIINATDP | – | – | – | 3 fold | 8 fold |
| TIMP-3 mutein K45E, K50N, V52T, K94N, E96T, D110N, K112T, R138T, G173T (other) CTCSPSHPQDAFCNSDIVIRAEVVGKNLTKEGPFGTLVYTIKQMKMYRGFTKMPHVQYIHTEASESLCGLNLTVNKYQYLLTGRVYNGTMYTGLCNFVERWDQLTLSQRKGLNYTYHLGCNCKIKSCYYLPCFVTSKNECLWTDMLSNFTYPGYQSKHYACIRQKGGYCSWYRGWAPPDKSIINATDP | – | – | – | 2 fold | 1 fold |
| TIMP-3 mutein K45N, V47T, F57N, K94N, E96T, D110N, K112T, G173T, R186Q, K188Q (other) CTCSPSHPQDAFCNSDIVIRANVTGKKLVKEGPNGTLVYTIKQMKMYRGFTKMPHVQYIHTEASESLCGLNLTVNKYQYLLTGRVYNGTMYTGLCNFVERWDQLTLSQRKGLNYRYHLGCNCKIKSCYYLPCFVTSKNECLWTDMLSNFTYPGYQSKHYACIQQQGGYCSWYRGWAPPDKSIINATDP | – | – | – | 3 fold | 12 fold |
| TIMP-3 mutein K50N, V52T, F57N, K94N, E96T, R138T, G173T (other) CTCSPSHPQDAFCNSDIVIRAKVVGKNLTKEGPNGTLVYTIKQMKMYRGFTKMPHVQYIHTEASESLCGLNLTVNKYQYLLTGRVYDGKMYTGLCNFVERWDQLTLSQRKGLNYTYHLGCNCKIKSCYYLPCFVTSKNECLWTDMLSNFTYPGYQSKHYACIRQKGGYCSWYRGWAPPDKSIINATDP | – | – | – | 2 fold | 91 fold |
| TIMP-3 mutein K50N, V52T, F57N, K94N, E96T, D110N, K112T, R138T (other) CTCSPSHPQDAFCNSDIVIRAKVVGKNLTKEGPNGTLVYTIKQMKMYRGFTKMPHVQYIHTEASESLCGLNLTVNKYQYLLTGRVYNGTMYTGLCNFVERWDQLTLSQRKGLNYTYHLGCNCKIKSCYYLPCFVTSKNECLWTDMLSNFGYPGYQSKHYACIRQKGGYCSWYRGWAPPDKSIINATDP | – | – | – | 1 fold | 70 fold |
| TIMP-3 mutein K45E, F57N, K94N, E96T, D110N, K112T, R138T (other) CTCSPSHPQDAFCNSDIVIRAEVVGKKLVKEGPNGTLVYTIKQMKMYRGFTKMPHVQYIHTEASESLCGLNLTVNKYQYLLTGRVYNGTMYTGLCNFVERWDQLTLSQRKGLNYTYHLGCNCKIKSCYYLPCFVTSKNECLWTDMLSNFGYPGYQSKHYACIRQKGGYCSWYRGWAPPDKSIINATDP | – | – | – | 1 fold | 128 fold |
